Key:
[1] = target: CALU (human) (UniProt O43852); assay: co-IP/MS, IgG control IP of C-FLAG B3GNT2 cell lysate
[2] = target: GCN1 (human) (UniProt Q92616); assay: as above
[3] = target: RPL23A (human) (UniProt P62750); assay: as above
[4] = target: RPS15A (UniProt P62244); assay: co-IP with mouse IgG control, mass spectrometry; lysate of C-FLAG B3GNT2 cells
[5] = target: HBA1 (UniProt P69905); assay: as above
[6] = target: RPL35A (UniProt P18077); assay: as above
[7] = target: PCMT1 (UniProt P22061); assay: as above
[8] = target: AHNAK (UniProt Q09666); assay: as above
[9] = target: S100A8 (UniProt P05109); assay: as above
[10] = target: HNRNPA1 (UniProt P09651); assay: as above
[11] = target: LTF (UniProt P02788); assay: as above
Sequence of LTF (P02788 20-710 limits assumed): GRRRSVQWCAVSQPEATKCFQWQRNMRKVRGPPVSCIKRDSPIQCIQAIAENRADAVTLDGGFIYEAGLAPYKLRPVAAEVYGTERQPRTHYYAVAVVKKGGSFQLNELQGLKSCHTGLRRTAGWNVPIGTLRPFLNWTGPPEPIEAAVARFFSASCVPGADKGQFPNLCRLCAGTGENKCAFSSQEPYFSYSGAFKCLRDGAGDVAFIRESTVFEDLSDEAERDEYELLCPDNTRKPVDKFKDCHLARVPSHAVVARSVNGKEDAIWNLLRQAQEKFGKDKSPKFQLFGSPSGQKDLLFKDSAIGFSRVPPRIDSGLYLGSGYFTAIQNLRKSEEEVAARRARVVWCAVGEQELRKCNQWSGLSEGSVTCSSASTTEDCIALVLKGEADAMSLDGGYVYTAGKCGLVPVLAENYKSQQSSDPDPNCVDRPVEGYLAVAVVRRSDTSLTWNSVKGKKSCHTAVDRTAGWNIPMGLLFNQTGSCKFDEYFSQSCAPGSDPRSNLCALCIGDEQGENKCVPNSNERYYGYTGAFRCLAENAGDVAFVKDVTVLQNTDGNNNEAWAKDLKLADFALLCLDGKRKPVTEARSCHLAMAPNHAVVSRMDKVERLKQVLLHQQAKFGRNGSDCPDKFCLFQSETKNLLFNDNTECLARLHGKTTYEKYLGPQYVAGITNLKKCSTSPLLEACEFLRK

[12] = target: YBX3 (UniProt P16989); assay: as above
Sequence of YBX3 (P16989 2-372 limits assumed): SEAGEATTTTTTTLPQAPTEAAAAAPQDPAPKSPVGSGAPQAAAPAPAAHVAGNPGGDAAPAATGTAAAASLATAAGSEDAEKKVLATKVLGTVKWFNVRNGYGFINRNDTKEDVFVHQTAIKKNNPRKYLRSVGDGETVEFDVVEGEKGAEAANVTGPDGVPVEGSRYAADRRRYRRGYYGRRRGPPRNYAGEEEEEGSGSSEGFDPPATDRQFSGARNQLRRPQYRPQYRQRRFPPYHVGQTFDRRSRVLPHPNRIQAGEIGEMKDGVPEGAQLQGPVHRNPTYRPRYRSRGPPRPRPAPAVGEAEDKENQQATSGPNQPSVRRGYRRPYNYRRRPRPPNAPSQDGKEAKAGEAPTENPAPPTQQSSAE

[13] = target: RPL36A (UniProt P83881); assay: as above
[14] = target: RPS17 (UniProt P08708); assay: as above
[15] = target: RPS11 (UniProt P62280); assay: as above
[16] = target: RPL31 (UniProt P62899); assay: as above
[17] = target: SSR1 (UniProt P43307); assay: as above
[18] = target: TRIM21 (UniProt P19474); assay: as above
[19] = target: RPL11 (UniProt P62913); assay: as above
[20] = target: ATXN2L (UniProt Q8WWM7); assay: as above
[21] = target: S100A9 (UniProt P06702); assay: as above
Sequence of S100A9 (P06702 whole entry): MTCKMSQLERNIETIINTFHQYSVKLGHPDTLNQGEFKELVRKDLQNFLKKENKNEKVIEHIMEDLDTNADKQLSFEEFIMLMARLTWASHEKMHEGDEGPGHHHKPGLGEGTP

[22] = target: RPL36 (UniProt Q9Y3U8); assay: as above
[23] = target: LYZ (UniProt P61626); assay: as above
Sequence of LYZ (P61626 19-148 limits assumed): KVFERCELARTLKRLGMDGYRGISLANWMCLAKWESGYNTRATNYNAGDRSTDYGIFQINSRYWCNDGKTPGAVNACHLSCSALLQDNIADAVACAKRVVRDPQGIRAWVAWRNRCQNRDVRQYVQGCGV

[24] = target: SLIRP (UniProt Q9GZT3); assay: as above
[25] = target: TPI1 (UniProt P60174); assay: as above
[26] = target: STRAP (UniProt Q9Y3F4); assay: as above
[27] = target: SPRR2E (UniProt P22531); assay: as above
[28] = target: ATP5F1B (UniProt P06576); assay: as above
[29] = target: SERPINB12 (UniProt Q96P63); assay: as above
[30] = target: RCC2 (UniProt Q9P258); assay: as above
Sequence of RCC2 (Q9P258 whole entry): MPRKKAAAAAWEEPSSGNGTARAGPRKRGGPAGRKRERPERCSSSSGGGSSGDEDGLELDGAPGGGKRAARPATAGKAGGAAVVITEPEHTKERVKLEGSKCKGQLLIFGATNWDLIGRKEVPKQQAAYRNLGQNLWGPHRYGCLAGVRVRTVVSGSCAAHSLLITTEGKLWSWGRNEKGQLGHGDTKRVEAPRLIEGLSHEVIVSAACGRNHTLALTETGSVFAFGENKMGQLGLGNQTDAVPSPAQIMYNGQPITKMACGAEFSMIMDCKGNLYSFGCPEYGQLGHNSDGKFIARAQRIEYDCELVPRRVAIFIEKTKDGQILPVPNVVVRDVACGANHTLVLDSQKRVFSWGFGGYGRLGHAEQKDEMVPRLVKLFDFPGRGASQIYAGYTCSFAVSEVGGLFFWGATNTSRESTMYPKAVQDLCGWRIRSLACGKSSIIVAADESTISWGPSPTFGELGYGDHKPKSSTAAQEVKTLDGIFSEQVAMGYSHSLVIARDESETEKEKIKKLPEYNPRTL

[31] = target: PPIA (UniProt P62937); assay: as above
[32] = target: FABP5 (UniProt Q01469); assay: as above
[33] = target: UBA52 (UniProt P62987); assay: as above
[34] = target: HNRNPF (UniProt P52597); assay: as above
[35] = target: RPL10A (UniProt P62906); assay: as above
[36] = target: ACTR3 (UniProt P61158); assay: as above
[37] = target: EEF1A1 (UniProt P68104); assay: as above
[38] = target: YWHAZ (UniProt P63104); assay: as above
Sequence of YWHAZ (P63104 whole entry): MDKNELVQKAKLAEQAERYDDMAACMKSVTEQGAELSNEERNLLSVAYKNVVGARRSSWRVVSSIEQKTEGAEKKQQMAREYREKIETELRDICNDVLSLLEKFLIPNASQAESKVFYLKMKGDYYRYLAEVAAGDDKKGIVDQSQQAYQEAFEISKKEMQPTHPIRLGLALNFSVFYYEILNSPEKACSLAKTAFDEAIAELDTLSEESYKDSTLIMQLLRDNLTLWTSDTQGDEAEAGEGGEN

Sequence of CALU (human) (O43852 20-315 limits assumed): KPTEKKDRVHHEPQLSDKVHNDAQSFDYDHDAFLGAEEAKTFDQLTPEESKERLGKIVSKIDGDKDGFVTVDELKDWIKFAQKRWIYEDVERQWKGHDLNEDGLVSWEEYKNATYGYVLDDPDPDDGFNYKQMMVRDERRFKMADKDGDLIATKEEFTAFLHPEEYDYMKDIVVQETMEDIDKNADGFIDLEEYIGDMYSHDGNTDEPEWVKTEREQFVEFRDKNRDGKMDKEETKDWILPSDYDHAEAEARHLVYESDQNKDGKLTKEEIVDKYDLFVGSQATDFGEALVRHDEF
Sequence of GCN1 (human) (Q92616 2-2671 limits assumed): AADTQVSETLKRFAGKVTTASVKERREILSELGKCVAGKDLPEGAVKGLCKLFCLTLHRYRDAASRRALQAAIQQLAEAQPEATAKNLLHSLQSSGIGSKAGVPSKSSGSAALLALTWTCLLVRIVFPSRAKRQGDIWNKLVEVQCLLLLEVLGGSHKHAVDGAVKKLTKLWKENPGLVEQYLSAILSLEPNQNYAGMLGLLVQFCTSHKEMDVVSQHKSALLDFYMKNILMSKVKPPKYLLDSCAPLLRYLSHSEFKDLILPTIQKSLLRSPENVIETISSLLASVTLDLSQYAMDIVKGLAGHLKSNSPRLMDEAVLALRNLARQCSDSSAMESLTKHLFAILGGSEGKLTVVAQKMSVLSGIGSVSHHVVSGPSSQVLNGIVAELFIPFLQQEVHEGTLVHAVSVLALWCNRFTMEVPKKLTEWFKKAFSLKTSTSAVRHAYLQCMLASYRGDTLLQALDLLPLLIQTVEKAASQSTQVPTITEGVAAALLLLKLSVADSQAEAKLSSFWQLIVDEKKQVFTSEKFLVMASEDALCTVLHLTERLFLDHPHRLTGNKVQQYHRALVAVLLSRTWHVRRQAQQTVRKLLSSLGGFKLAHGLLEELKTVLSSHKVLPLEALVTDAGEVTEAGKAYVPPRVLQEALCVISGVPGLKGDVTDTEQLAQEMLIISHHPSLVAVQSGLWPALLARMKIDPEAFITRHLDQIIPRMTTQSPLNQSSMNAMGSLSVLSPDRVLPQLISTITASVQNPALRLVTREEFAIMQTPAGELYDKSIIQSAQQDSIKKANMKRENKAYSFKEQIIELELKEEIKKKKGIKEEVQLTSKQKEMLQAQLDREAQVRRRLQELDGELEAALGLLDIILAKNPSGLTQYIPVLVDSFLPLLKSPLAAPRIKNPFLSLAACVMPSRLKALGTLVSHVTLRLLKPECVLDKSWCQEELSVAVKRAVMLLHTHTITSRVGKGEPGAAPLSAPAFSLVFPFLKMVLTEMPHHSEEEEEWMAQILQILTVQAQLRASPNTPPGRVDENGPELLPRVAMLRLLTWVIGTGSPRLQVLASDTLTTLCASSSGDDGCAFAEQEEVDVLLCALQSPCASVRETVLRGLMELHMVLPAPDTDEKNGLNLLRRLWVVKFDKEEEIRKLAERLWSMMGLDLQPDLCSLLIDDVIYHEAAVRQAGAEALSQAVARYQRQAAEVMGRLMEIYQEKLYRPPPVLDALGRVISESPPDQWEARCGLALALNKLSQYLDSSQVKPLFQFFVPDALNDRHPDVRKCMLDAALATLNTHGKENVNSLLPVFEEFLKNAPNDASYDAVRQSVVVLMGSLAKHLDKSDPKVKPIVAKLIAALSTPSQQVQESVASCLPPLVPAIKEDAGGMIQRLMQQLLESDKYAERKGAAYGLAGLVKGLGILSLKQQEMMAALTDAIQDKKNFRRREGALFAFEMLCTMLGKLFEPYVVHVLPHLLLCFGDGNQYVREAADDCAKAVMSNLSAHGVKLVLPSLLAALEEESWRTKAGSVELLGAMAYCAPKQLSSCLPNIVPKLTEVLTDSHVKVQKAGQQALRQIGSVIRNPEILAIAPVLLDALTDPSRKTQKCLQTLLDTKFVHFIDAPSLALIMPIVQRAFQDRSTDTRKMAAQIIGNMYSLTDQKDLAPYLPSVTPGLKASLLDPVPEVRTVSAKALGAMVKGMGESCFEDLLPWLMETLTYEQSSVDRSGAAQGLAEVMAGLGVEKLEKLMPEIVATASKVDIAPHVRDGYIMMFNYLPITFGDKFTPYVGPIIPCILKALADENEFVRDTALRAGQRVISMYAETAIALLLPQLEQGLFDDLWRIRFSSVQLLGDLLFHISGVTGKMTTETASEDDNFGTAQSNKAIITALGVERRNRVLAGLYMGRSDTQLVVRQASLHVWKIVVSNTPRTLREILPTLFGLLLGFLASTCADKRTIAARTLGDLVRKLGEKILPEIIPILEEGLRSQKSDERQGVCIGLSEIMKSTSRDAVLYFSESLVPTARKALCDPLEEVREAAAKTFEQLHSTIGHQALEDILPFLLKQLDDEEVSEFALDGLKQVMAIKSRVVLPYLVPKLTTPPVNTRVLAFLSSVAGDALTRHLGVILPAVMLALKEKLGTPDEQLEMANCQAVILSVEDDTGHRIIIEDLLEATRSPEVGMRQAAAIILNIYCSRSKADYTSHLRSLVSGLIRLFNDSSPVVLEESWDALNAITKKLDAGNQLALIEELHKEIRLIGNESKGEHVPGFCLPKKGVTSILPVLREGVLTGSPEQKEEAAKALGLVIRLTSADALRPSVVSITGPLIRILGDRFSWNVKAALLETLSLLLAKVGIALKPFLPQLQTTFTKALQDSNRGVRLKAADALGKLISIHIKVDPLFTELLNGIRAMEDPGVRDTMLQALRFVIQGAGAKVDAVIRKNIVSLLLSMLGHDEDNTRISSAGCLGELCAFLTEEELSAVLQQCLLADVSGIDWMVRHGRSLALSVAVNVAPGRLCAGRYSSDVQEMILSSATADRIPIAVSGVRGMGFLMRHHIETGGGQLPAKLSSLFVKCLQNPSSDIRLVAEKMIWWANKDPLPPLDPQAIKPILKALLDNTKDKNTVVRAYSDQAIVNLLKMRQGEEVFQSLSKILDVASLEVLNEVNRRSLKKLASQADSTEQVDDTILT

IgG control (Millipore Sigma 12-371) (antibody)
co-IP mass spectrometry count [1]: 0
co-IP mass spectrometry count [2]: 0
co-IP mass spectrometry count [3]: 4
co-IP mass spectrometry count [4]: 2
co-IP mass spectrometry count [5]: 0
co-IP mass spectrometry count [6]: 0
co-IP mass spectrometry count [7]: 0
co-IP mass spectrometry count [8]: 2
co-IP mass spectrometry count [9]: 5
co-IP mass spectrometry count [10]: 4
co-IP mass spectrometry count [11]: 2
co-IP mass spectrometry count [12]: 0
co-IP mass spectrometry count [13]: 0
co-IP mass spectrometry count [14]: 5
co-IP mass spectrometry count [15]: 9
co-IP mass spectrometry count [16]: 0
co-IP mass spectrometry count [17]: 0
co-IP mass spectrometry count [18]: 0
co-IP mass spectrometry count [19]: 3
co-IP mass spectrometry count [20]: 2
co-IP mass spectrometry count [21]: 5
co-IP mass spectrometry count [22]: 0
co-IP mass spectrometry count [23]: 0
co-IP mass spectrometry count [24]: 0
co-IP mass spectrometry count [25]: 0
co-IP mass spectrometry count [26]: 0
co-IP mass spectrometry count [27]: 5
co-IP mass spectrometry count [28]: 0
co-IP mass spectrometry count [29]: 0
co-IP mass spectrometry count [30]: 0
co-IP mass spectrometry count [31]: 0
co-IP mass spectrometry count [32]: 0
co-IP mass spectrometry count [33]: 7
co-IP mass spectrometry count [34]: 3
co-IP mass spectrometry count [35]: 0
co-IP mass spectrometry count [36]: 2
co-IP mass spectrometry count [37]: 5
co-IP mass spectrometry count [38]: 0

Reference: US20240261333A1, “NOVEL TARGETS FOR ENHANCING ANTI-TUMOR IMMUNITY” (THE BROAD INSTITUTE, INC., priority 2021, published 2024)
